Reference: the supplement of paper PMC9732359
± gives the uncertainty stated by the source.

assay: protein stability index of a GFP-peptide fusion (yeast GPS) (PSI 1-4); higher = more stable; sorted into four equal gates, so the index is relative within each strain; details: doa10∆
Method in brief: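 Tiled 17-residue yeast protein peptides were fused downstream of GFP in a plasmid that also expresses Cherry, and the pooled library was carried in yeast. Mid-log cultures in leucine-free medium were sorted into four equal gates by GFP/Cherry fluorescence ratio, and plasmids from each gate were PCR-amplified and Illumina-sequenced, with reads assigned to strains by barcodes. The protein stability index for each peptide was each gate's read frequency times its gate number, summed.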

Compared with ILEHTLFKGTGFNSWEG [PRP8], ILFELYKIKGRNNSKSV [SRP72] is lower in protein stability index: 2.42 ± 0.12 for the first, 2.04 ± 0.068 for the second.

First: ILHTKESSNEAKKTIQN [SIR4]
Second: ILKSPHLSKSPADRPQG [SIR4]
The protein stability index of the first is higher: 2.74 ± 0.056 for the first, 2.43 ± 0.074 for the second.

Going from ILNDSLIYHLKDCAEVD [IRR1] to ILNELQPNARALERYDE [SMC1], the protein stability index rises from 2.05 ± 0.056 to 3.3 ± 0.22.

Going from ILNINNSTSKNTLLQQQ [SWI1] to ILNSIPAAANLDALVDC [YJL039C/NUP192], the protein stability index falls from 2.37 ± 0.052 to 2.18 ± 0.074.

Going from ILPDSLNLDSLLVDQKQ [SMD1] to ILQYFEKWISSKNSKLS [SIR3], the protein stability index falls from 3.29 ± 0.098 to 2.8 ± 0.15.

First: ILQYSRTWYESFCGFLL [YJR042W/NUP85]
Second: ILRKPGKDCKLQNLQRI [RRI2]
The protein stability index of the first is lower: 2.11 ± 0.061 for the first, 3.12 ± 0.094 for the second.

ILRQRGPGFKFVDLNEK [SRB4] and ILRRQAILRQQQQMANN [GAL11] are within error of each other in protein stability index: 2.57 ± 0.11 for the first, 2.49 ± 0.15 for the second.

Going from ILVGGTLKDYQIKGLQW [SNF2] to ILYGPPGTGKTLLARAV [RPT6], the protein stability index rises from 2.99 ± 0.076 to 3.4 ± 0.16.

Going from ILYTSKIVFILDSDSEN [RRI2] to IMFNHARIIRSELLARD [RGR1], the protein stability index falls from 1.76 ± 0.065 to 1.58 ± 0.11.

First: IMLLQLELGSCFSQENI [SIN4]
Second: INAVLVNDNDERAARVV [RPO31]
The protein stability index of the first is lower: 1.64 ± 0.046 for the first, 2.88 ± 0.12 for the second.

Going from INDNNTRPYILERARDV [YCG1] to INGEPSIHVNRVERSSR [RRI1], the protein stability index falls from 3.6 ± 0.23 to 2.99 ± 0.078.

INHEDGFIETTELLNIY [RPN3] and INIQKYNNNTIRKLLEK [CSI1] are within error of each other in protein stability index: 2.97 ± 0.079 for the first, 2.85 ± 0.25 for the second.

First: INKLMEKDFQVNKEIKP [SIR4]
Second: INLTKVTQKDICILGIL [CSI1]
The protein stability index of the first is higher: 3.4 ± 0.083 for the first, 2.78 ± 0.07 for the second.

First: INSENDYSRKQLGYGKF [NUT1]
Second: INSGTNSANGSSLNGTN [SSN3]
The protein stability index of the first is higher: 3.46 ± 0.26 for the first, 2.55 ± 0.056 for the second.

Going from INVVIKASRKSVGLPSK [ECM29] to IPDIGDLPDTEGLELLG [PRP8], the protein stability index rises from 1.27 ± 0.089 to 3.08 ± 0.14.

Going from IPGEYVTYALSGYVRSR [RPS21A] to IPHIFYSLHQIRKDPNN [CSE2], the protein stability index rises from 2.18 ± 0.29 to 2.7 ± 0.11.

Compared with IPPLNKSLAMEHKSQVV [CSN12], IPSAAFNFFEPIKEAKI [YMR129W/POM152] is higher in protein stability index: 1.26 ± 0.063 for the first, 1.98 ± 0.039 for the second.

First: IQDTLRTGSQSPPSSSQ [MED7]
Second: IQEFQGNPYIELNQDRL [SNF5]
The protein stability index of the first is lower: 2.81 ± 0.044 for the first, 3.13 ± 0.059 for the second.

Compared with IQGFYWAVKEGPLAEEP [SNU114], IQHIAAAMVPFIKFKLI [CDC53] is higher in protein stability index: 1.58 ± 0.089 for the first, 2.42 ± 0.048 for the second.

Compared with IQLPASLAATYSMISLQ [ARP9], IQLQEFLLSAMTMASKS [NSL1] is lower in protein stability index: 1.73 ± 0.088 for the first, 1.5 ± 0.058 for the second.

IQNDEEYDTPALFFDPS [PRP8] and IQPKNSDDQQEAVELVI [YML103C/NUP188] are within error of each other in protein stability index: 2.76 ± 0.073 for the first, 2.85 ± 0.19 for the second.

Compared with IQRGRILPTDGSAEFNV [RPB7], IRAIRKVISEILTREVQ [RPS1B] is lower in protein stability index: 2.8 ± 0.14 for the first, 1.92 ± 0.07 for the second.

Compared with IRGIVKQIVHDSGRGAP [RPL2A], IRLAKTLKKNNVAVDII [RPN10] is higher in protein stability index: 1.76 ± 0.07 for the first, 2.73 ± 0.085 for the second.

First: IRPDGRLPHQFRPIEIF [RRP42]
Second: IRRAYLHYIPKYNRYEK [RPS11A]
The protein stability index of the first is lower: 1.84 ± 0.087 for the first, 2.04 ± 0.07 for the second.

Compared with ISEEETTVKPLFQNVPE [YAR002W/NUP60], ISEFDSFTDILKSAIRD [RPN12] is lower in protein stability index: 3.01 ± 0.069 for the first, 2.73 ± 0.12 for the second.

Sequence ISFVLGVRSNHLRSNIL [SMC1] has a protein stability index of 2.09 ± 0.061.
